± gives the uncertainty stated by the source.
B1: Gamma-crystallin C, residues 91 to 170; numbered along this chain, P07315 (parent)
chain: RLYEREDHKGLMMELSEDCPSIQDRFHLSEIRSLHVLEGCWVLYELPNYRGRQYLLRPQEYRRCQDWGAMDAKAGSLRRV

Variants of: B1
Assay: abundance fitness (aPCA) (normalised: wild type 0, dead -1); higher = more abundant; growth selection in yeast, the domain comes from the species named
Conditions: Homo sapiens

Variant	abundance fitness
A69L	-0.935 ± 0.26
A69M	-0.847 ± 0.15
A69V	-0.818 ± 0.22
A69D	-0.701 ± 0.42
A69C	-0.621 ± 0.46
A69P	-0.968 ± 0.29
Y54Q	-0.783 ± 0.27
Y54L	-0.727 ± 0.15
Y54P	-1 ± 0.2
Y54S	-0.614 ± 0.077
Y54F	-0.118 ± 0.22
Y54T	-0.717 ± 0.17
Y54I	-0.395 ± 0.21
Y54E	-1.19 ± 0.48
Y54R	-0.897 ± 0.11
Y54G	-0.968 ± 0.32
Y54M	-0.692 ± 0.23
Y54W	-0.36 ± 0.1
Y54A	-0.891 ± 0.23
Y54K	-0.76 ± 0.21
Q59G	0.02 ± 0.055
Q59P	-0.994 ± 0.23
Q59E	-0.354 ± 0.19
Q59V	-0.266 ± 0.1

Variant	abundance fitness
Q59K	0.135 ± 0.11
Q59L	-0.438 ± 0.078
Q59A	0.041 ± 0.1
Q59C	-0.052 ± 0.12
Q59I	-0.145 ± 0.088
Q59D	-0.217 ± 0.3
Q59R	-0.047 ± 0.062
Q59N	-0.364 ± 0.34
Q59H	-0.245 ± 0.1
Q59S	-0.116 ± 0.06
Q59M	-0.038 ± 0.12
Q59W	-0.486 ± 0.073
Q59F	-0.377 ± 0.14
G51L	-0.807 ± 0.19
G51H	-0.752 ± 0.46
G51T	-0.49 ± 0.11
G51S	-0.962 ± 0.18
G51W	-0.268 ± 0.18
G51P	-1.03 ± 0.49
G51C	-0.695 ± 0.27
G51R	-0.589 ± 0.098
G51A	-0.833 ± 0.27
G51V	-0.93 ± 0.2
A72P	-0.007 ± 0.063

Variant	abundance fitness
A72F	-0.5 ± 0.12
A72I	-0.745 ± 0.23
A72R	-0.782 ± 0.093
A72W	-0.365 ± 0.12
A72T	-0.207 ± 0.071
A72N	-0.066 ± 0.17
A72G	-0.118 ± 0.047
A72S	-0.058 ± 0.064
A72V	-0.554 ± 0.15
A72M	-0.997 ± 0.35
A72H	-0.375 ± 0.15
A72Y	-0.452 ± 0.26
C64M	-0.404 ± 0.12
C64W	-0.086 ± 0.17
C64G	-0.597 ± 0.099
C64S	-0.285 ± 0.071
C64R	-0.653 ± 0.073
C64V	-0.596 ± 0.091
C64P	0.014 ± 0.085
C64Y	-0.116 ± 0.15
C64H	0.063 ± 0.1
C64L	-0.841 ± 0.099
C64F	-0.093 ± 0.14
C64T	-0.213 ± 0.25

Variant	abundance fitness
C64Q	-0.795 ± 0.23
C64A	-0.144 ± 0.061
R62A	0.07 ± 0.079
R62V	-0.365 ± 0.093
R62P	-0.196 ± 0.055
R62S	-0.069 ± 0.066
R62N	-0.64 ± 0.41
R62Q	-0.1 ± 0.11
R62D	-0.619 ± 0.21
R62G	-0.237 ± 0.074
R62W	-0.073 ± 0.11
R62Y	-0.252 ± 0.43
R62F	-0.086 ± 0.14
R62T	-0.262 ± 0.075
R62M	0.195 ± 0.23
R62E	-0.6 ± 0.15
D66L	-0.518 ± 0.054
D66M	-0.47 ± 0.13
D66T	-0.934 ± 0.29
D66V	-0.749 ± 0.15
D66P	-0.879 ± 0.17
D66H	-0.548 ± 0.23
D66Q	-0.491 ± 0.12
D66A	-0.313 ± 0.12

Variant	abundance fitness
D66E	-0.083 ± 0.14
D66S	-0.316 ± 0.06
D66C	-0.485 ± 0.22
D66Y	-0.603 ± 0.27
D66R	-0.857 ± 0.14
D66W	-0.639 ± 0.18
R57S	0.018 ± 0.065
R57Q	-0.045 ± 0.13
R57V	-0.14 ± 0.051
R57D	-0.174 ± 0.14
R57G	-0.134 ± 0.061
R57K	-0.148 ± 0.24
R57C	-0.215 ± 0.13
R57E	-0.064 ± 0.1
R57N	0.021 ± 0.16
R57W	-0.179 ± 0.092
R57L	-0.24 ± 0.12
R57F	-0.067 ± 0.23
R57H	-0.034 ± 0.1
R57T	0.052 ± 0.091
R57M	-0.297 ± 0.097
R57A	0.003 ± 0.078
R57I	-0.566 ± 0.43
P58K	-0.15 ± 0.3

Variant	abundance fitness
P58S	-0.202 ± 0.08
P58N	-0.268 ± 0.13
P58C	-0.334 ± 0.12
P58H	-0.587 ± 0.3
P58T	-0.105 ± 0.1
P58V	-0.378 ± 0.12
P58R	-0.453 ± 0.067
P58G	-0.744 ± 0.13
P58D	-0.167 ± 0.15
P58A	-0.167 ± 0.11
P58F	-0.882 ± 0.42
P58L	-0.98 ± 0.19
P58I	-0.623 ± 0.17
Q65H	-0.242 ± 0.2
Q65E	-0.044 ± 0.15
Q65T	-0.032 ± 0.074
Q65G	-0.08 ± 0.1
Q65Y	-0.149 ± 0.16
Q65D	-0.355 ± 0.2
Q65S	-0.02 ± 0.059
Q65A	-0.075 ± 0.049
Q65I	-0.336 ± 0.27
Q65M	-0.283 ± 0.12
Q65C	-0.265 ± 0.11

Variant	abundance fitness
Q65R	-0.173 ± 0.061
Q65K	-0.06 ± 0.12
Q65F	-0.248 ± 0.15
Q65V	0.071 ± 0.11
Q65N	-0.129 ± 0.16
Q65P	-0.687 ± 0.089
Q65L	-0.17 ± 0.073
L55H	-0.053 ± 0.14
L55Y	0.161 ± 0.18
L55E	-0.074 ± 0.14
L55A	-0.09 ± 0.086
L55Q	-0.067 ± 0.089
L55D	-0.441 ± 0.21
L55T	0.1 ± 0.093
L55S	-0.08 ± 0.05
L55V	-0.087 ± 0.066
L55K	-0.161 ± 0.17
L55F	-0.078 ± 0.12
L55G	-0.082 ± 0.089
L55M	-0.01 ± 0.084
L55C	-0.241 ± 0.15
L55I	0.075 ± 0.12
L55W	-0.098 ± 0.092

Reference: the Human Domainome abundance scans (Beltran et al. 2025)
